Measured values published in US20130202618A1 (PROGENICS PHARMACEUTICALS, published 2013).

Legend:
Test in all cases: cell-based or functional assay
[1] = biological target: T1, C. difficile toxin A from strain CCL678 (ribotype 027, BI/NAP1/027) (Clostridium difficile strain CCL678)
[2] = biological target: T2, C. difficile toxin A from strain HMC553 (ribotype 027, BI/NAP1/027) (Clostridium difficile strain HMC553)
[3] = biological target: T3, C. difficile toxin A from strain Pitt 45 (ribotype 027, BI/NAP1/027) (Clostridium difficile strain Pitt 45)
[4] = biological target: T4, C. difficile toxin A from strain Montreal 5 (ribotype 027, BI/NAP1/027) (Clostridium difficile strain Montreal 5)
[5] = biological target: T5, C. difficile toxin A from strain CD196 (ribotype 027, BI/NAP1/027) (Clostridium difficile strain CD196)
[6] = biological target: T6, C. difficile toxin A from strain Montreal 7.1 (ribotype 027, BI/NAP1/027) (Clostridium difficile strain Montreal …)
[7] = biological target: C. difficile toxin A from strain Pitt 2 (ribotype 001) (Clostridium difficile strain Pitt 2)
[8] = biological target: T1, C. difficile toxin A from strain CCL678 …; remark: listed apart in the source
[9] = biological target: C. difficile toxin A from strain UVA17 (ribotype 002) (Clostridium difficile strain UVA17)
[10] = biological target: T2, C. difficile toxin A from strain HMC553 …; remark: listed apart in the source
[11] = biological target: C. difficile toxin A from strain MH5 (ribotype 001) (Clostridium difficile strain MH5)
[12] = biological target: Clostridium difficile toxin A (strain VPI 10463) (Clostridium difficile strain VPI 10463, UniProt P16154 1-2710)
[13] = biological target: C. difficile toxin A from strain Pitt 07 (ribotype 078) (Clostridium difficile strain Pitt 07)
[14] = biological target: T3, C. difficile toxin A from strain Pitt …; remark: listed apart in the source
[15] = biological target: C. difficile toxin A from strain 630 (ATCC BAA-1382, ribotype 012) (Clostridium difficile strain 630)
[16] = biological target: C. difficile toxin A from strain 545 (ATCC 43596, ribotype 012) (Clostridium difficile strain 545 (ATCC …))
[17] = biological target: T4, C. difficile toxin A from strain …; remark: listed apart in the source
[18] = biological target: T5, C. difficile toxin A from strain CD196 …; remark: listed apart in the source
[19] = biological target: C. difficile toxin A from strain CCL14137 (ribotype 001) (Clostridium difficile strain CCL14137)
[20] = biological target: T6, C. difficile toxin A from strain …; remark: listed apart in the source
[21] = biological target: C. difficile toxin A from strain UVA30/TL42 (ribotype 014) (Clostridium difficile strain UVA30/TL42)
[22] = biological target: T7, Clostridium difficile toxin B (strain VPI 10463) (Clostridium difficile strain VPI 10463, UniProt P18177 2-2366)
[23] = biological target: T7, Clostridium difficile toxin B (strain …); remark: listed apart in the source

T7 sequence (P18177 2-2366): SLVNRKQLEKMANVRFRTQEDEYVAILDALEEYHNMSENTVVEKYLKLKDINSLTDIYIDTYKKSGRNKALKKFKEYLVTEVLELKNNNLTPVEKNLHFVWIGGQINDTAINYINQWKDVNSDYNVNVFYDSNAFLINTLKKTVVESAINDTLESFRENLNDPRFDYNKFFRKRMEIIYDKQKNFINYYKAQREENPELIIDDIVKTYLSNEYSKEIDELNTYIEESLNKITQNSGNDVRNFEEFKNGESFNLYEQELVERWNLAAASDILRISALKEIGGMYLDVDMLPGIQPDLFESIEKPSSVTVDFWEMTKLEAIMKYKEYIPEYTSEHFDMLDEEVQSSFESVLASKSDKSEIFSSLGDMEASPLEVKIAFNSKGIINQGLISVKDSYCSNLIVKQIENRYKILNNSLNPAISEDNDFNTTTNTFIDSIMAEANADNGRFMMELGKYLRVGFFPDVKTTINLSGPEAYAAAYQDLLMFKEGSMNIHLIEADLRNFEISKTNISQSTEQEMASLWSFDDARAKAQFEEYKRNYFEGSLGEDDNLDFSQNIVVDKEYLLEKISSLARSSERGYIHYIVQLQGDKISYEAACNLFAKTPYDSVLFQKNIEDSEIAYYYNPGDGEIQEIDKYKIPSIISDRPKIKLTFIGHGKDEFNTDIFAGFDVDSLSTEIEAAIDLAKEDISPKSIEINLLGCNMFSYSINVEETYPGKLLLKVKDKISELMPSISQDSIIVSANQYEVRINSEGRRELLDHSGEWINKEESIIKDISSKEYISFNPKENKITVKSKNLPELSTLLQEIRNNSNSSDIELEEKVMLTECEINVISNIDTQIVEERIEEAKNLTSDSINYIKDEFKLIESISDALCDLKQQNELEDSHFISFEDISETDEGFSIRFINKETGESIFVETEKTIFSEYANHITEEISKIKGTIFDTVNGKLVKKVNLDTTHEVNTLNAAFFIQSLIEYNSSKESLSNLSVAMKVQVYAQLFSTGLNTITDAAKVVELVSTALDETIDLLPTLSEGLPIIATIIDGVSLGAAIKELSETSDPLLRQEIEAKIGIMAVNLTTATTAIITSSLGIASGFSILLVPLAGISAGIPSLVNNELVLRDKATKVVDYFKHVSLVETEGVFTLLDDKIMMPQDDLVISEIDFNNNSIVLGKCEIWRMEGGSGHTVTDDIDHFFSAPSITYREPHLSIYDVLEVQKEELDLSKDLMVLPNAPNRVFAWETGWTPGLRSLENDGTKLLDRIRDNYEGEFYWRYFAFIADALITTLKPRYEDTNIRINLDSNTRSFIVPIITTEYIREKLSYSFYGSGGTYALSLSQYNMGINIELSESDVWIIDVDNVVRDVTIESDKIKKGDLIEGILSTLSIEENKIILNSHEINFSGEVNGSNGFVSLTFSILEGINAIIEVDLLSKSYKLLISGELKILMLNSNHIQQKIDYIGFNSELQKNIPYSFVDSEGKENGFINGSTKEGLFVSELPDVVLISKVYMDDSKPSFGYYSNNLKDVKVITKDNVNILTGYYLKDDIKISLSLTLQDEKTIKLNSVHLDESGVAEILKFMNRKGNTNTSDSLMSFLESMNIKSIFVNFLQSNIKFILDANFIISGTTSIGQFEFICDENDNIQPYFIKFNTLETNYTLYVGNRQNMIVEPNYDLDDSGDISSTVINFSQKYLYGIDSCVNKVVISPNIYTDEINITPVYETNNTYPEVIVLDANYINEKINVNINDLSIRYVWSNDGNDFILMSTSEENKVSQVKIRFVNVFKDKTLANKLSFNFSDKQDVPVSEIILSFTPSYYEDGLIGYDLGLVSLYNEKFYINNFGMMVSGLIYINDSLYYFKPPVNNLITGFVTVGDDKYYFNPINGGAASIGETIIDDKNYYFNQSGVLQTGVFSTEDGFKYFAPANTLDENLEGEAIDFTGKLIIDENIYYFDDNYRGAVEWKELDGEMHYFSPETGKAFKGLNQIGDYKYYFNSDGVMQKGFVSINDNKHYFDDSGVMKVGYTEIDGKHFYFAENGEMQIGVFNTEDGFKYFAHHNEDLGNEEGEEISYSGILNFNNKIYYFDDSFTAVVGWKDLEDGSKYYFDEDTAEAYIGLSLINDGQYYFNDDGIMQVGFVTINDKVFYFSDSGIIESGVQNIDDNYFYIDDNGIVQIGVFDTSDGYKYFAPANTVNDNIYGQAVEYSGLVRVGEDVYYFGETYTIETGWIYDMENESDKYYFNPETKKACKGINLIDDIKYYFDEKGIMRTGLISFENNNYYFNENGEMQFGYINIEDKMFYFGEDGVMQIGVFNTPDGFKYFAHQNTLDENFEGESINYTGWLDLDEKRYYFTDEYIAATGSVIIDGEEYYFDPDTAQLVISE
Chain of Clostridium difficile toxin A (strain VPI 10463) (P16154 whole entry): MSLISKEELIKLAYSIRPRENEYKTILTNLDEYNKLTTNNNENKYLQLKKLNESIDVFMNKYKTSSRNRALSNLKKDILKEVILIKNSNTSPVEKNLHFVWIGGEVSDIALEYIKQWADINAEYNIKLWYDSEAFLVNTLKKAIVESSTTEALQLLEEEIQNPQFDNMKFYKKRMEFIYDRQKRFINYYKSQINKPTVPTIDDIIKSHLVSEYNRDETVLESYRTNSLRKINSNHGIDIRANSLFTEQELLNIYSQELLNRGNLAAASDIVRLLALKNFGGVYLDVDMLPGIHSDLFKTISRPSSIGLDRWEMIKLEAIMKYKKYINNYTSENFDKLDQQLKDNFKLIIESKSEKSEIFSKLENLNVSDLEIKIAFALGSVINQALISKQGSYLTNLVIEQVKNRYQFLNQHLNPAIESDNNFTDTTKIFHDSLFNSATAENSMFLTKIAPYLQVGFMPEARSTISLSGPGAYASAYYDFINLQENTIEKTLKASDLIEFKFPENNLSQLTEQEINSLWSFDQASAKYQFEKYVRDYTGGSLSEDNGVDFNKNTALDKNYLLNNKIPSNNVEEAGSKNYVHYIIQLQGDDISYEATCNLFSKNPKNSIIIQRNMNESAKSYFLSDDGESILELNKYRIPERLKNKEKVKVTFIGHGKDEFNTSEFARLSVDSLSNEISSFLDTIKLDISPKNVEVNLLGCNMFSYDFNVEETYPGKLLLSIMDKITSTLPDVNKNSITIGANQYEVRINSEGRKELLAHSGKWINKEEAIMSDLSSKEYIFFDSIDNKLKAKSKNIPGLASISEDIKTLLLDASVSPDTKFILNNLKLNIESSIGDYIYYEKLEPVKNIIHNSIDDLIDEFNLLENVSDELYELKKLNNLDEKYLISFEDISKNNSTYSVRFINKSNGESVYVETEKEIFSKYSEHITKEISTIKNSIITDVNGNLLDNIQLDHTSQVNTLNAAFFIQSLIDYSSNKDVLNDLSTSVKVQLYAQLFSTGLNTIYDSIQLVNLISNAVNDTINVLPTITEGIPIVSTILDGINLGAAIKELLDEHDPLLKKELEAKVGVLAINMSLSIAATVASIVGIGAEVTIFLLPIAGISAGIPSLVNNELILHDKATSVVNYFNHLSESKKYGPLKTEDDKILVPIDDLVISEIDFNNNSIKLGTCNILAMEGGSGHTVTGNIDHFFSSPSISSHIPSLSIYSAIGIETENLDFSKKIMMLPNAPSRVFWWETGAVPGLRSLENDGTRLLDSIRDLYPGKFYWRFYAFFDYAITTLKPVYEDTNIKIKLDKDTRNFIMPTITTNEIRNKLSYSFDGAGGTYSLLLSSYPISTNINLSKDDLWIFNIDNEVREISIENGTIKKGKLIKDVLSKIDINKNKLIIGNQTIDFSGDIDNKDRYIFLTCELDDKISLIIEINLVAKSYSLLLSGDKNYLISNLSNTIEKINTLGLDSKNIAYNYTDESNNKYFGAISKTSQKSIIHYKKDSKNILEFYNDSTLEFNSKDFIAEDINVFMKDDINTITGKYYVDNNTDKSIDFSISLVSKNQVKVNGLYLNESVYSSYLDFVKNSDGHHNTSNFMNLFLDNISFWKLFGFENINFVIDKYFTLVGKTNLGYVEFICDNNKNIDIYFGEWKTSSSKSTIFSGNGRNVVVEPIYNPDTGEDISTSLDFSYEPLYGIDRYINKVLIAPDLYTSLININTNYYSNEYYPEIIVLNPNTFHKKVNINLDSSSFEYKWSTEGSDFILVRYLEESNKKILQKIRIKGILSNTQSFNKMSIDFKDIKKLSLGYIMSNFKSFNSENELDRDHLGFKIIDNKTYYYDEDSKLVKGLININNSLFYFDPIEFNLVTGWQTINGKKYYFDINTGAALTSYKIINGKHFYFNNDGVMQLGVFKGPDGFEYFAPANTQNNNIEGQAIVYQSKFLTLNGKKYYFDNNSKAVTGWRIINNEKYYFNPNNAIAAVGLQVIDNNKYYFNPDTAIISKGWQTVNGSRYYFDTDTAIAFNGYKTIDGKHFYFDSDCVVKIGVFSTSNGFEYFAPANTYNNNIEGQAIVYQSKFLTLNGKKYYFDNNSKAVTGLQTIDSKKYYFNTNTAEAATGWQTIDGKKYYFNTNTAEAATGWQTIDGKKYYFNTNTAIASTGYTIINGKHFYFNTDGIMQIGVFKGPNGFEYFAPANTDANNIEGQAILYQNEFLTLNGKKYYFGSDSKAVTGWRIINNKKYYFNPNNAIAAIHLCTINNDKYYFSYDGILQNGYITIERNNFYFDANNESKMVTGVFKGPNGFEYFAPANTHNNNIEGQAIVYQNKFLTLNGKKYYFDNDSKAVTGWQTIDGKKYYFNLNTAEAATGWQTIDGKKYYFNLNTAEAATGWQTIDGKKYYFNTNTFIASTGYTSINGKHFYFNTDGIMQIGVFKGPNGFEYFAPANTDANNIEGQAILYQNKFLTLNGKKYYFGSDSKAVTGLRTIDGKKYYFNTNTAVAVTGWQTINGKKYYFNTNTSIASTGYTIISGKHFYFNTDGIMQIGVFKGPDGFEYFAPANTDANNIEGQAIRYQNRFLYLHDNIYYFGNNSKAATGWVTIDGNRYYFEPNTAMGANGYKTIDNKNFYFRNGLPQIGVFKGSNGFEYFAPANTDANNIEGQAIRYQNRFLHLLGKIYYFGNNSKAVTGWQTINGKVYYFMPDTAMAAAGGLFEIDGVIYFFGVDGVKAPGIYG

B1: humanized anti-C. difficile toxin A monoclonal antibody PA-50 (antibody, V domains shown)
VH: QVQLVQSGAEVKKPGASVKVSCKASGYTFTDYNMDWVRQAPGQRLEWIGDINPKYDIIGHNPKFMGKATITVDKSASTAYMELSSLRSEDTAVYYCARSDRGWYFDVWGQGTLVTVSS
VL: EIVLTQSPATLSLSPGERATLSCRASSSVNYMNWYQQKPGQAPRPRIYATSNLASGVPARFSGSGSGTDYTLTISSLEPEDFAVYYCQQWSSRTFGGGTKLEIKR
- neutralization activity on T-84 cells relative to comparator mAb CDA-1 [1]: > 100 fold
- neutralization activity on T-84 cells relative to comparator mAb CDA-1 [2]: > 100 fold
- neutralization activity on T-84 cells relative to comparator mAb CDA-1 [3]: > 100 fold
- neutralization activity on T-84 cells relative to comparator mAb CDA-1 [4]: > 100 fold
- neutralization activity on T-84 cells relative to comparator mAb CDA-1 [5]: > 100 fold
- neutralization activity on T-84 cells relative to comparator mAb CDA-1 [6]: > 100 fold
- EC50, neutralization of supernatant cytotoxicity on T-84 cells [7]: 0.027 nM
- EC50, neutralization of supernatant cytotoxicity on T-84 cells [8]: 0.029 nM
- EC50, neutralization of supernatant cytotoxicity on T-84 cells [9]: 0.026 nM
- EC50, neutralization of supernatant cytotoxicity on T-84 cells [10]: 0.029 nM
- EC50, neutralization of supernatant cytotoxicity on T-84 cells [11]: 0.127 nM
- EC50, neutralization of supernatant cytotoxicity on T-84 cells [12]: 0.02 nM
- EC50, neutralization of supernatant cytotoxicity on T-84 cells [13]: 0.032 nM
- EC50, neutralization of supernatant cytotoxicity on T-84 cells [14]: 0.043 nM
- EC50, neutralization of supernatant cytotoxicity on T-84 cells [15]: 0.054 nM
- EC50, neutralization of supernatant cytotoxicity on T-84 cells [16]: 0.038 nM
- EC50, neutralization of supernatant cytotoxicity on T-84 cells [17]: 0.029 nM
- EC50, neutralization of supernatant cytotoxicity on T-84 cells [18]: 0.061 nM
- EC50, neutralization of supernatant cytotoxicity on T-84 cells [19]: 0.039 nM
- EC50, neutralization of supernatant cytotoxicity on T-84 cells [20]: 0.031 nM
- EC50, neutralization of supernatant cytotoxicity on T-84 cells [21]: 0.051 nM

B2: humanized anti-C. difficile toxin B monoclonal antibody PA-41 (antibody, V domains shown)
VH: QVQLVQSGAEVKKPGASVKVSCKASGYPFTNYFMHWVRQAPGQRLEWIGRINPYNGATSYSLNFRDKATITLDKSASTAYMELSSLRSEDTAVYYCARSTITSPLLDFWGQGTLVTVSS
VL: EIVLTQSPATLSLSPGERATLSCRASQSVGTSIHWYQQKPGQAPRLLIKFASESISGIPARFSGSGSGTDFTLTISSLEPEDFAVYYCQQSNKWPFTFGQGTKLEIKR
- EC50, neutralization of toxin B cytotoxicity on CHO-K1 cells (toxin B 2 pg/mL) [22]: 6000 nM
- EC50, neutralization on IMR-90 cells [22]: 5000 nM
- EC50, neutralization of supernatant cytotoxicity on CHO-K1 cells [23]: 0.0077 nM
